Experimental findings from patent US6475718 are described below.

A value given as a limit tells only on which side of the number the result lay.

In this test the target is orphan seven transmembrane domain receptor APJ (human) (UniProt P35414). The test is described as follows: cell-based or functional assay.
UniProt P35414, sequence (P35414 whole entry I109M/F110L, the tested form may be a part): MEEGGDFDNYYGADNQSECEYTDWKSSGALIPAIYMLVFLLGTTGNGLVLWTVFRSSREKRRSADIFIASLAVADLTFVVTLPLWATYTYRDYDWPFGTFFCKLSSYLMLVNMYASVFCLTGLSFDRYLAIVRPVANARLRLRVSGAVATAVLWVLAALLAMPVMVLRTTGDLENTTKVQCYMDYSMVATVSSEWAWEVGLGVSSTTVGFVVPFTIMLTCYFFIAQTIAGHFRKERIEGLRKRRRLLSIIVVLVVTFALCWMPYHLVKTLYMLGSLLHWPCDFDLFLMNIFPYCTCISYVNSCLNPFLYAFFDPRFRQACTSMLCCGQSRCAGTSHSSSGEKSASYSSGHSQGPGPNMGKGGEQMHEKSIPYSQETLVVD

Substance “HIV-1 89.6 env protein (from UniProt Q73372 32-853)” returned a cell-cell fusion (luciferase activity), QT6 target cells with CD4 and APJ (% of that observed with CXCR4) greater than 70.
